From patent US20200277377A1 (WUXI BIOLOGICS SHANGHAI, published 2020) come the findings set out here.

Positions count from the first letter of the chain named.

Holding throughout (assay): capture ELISA, alanine scan, vs silent alanine substitutions
(In general: An ELISA detects its analyte on a solid surface through an enzyme-linked reagent.)

Assay [1] addresses T1, hCTLA4_ECD.His point mutant E83 to alanine (human, UniProt P16410 36-161).
T1 construct: extracellular domain; alanine-scan mutein, HEK293F supernatant
T1 sequence (looked up): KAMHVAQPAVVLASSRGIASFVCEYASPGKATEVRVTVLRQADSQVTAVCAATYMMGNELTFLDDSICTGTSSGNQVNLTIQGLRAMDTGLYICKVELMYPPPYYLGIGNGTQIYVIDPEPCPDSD
As for the experimental part:
(§1) In order to test how the mutations affect antibody-binding, a capture ELISA was conducted. […] After interacting with the supernatant that contains quantified CTLA4 muteins, HRP conjugated anti-His antibody (1:5000; Rockland Immunochemicals, Pottstown, Pa.) was added as detection antibody. TMB was used as substance of HRP. Absorbance was normalized according to the average of control mutants. After setting an additional cutoff to the binding fold change (<0.55), the final determined epitope residues were identified.

The target in assay [2] is T2, hCTLA4_ECD.His point mutant P136 to alanine (human, UniProt P16410 36-161).
T2 construct: extracellular domain; alanine-scan mutein, HEK293F supernatant
T2 sequence (looked up): T1 sequence (looked up) with A48E, P101A
As for the experimental part:
as §1

For assay [3], the target named is T3, hCTLA4_ECD.His point mutant P137 to alanine (human, UniProt P16410 36-161).
T3 construct: extracellular domain; alanine-scan mutein, HEK293F supernatant
T3 sequence (looked up): T1 sequence (looked up) with A48E, P102A
Here is the method: as §1

Assay [4] addresses T4, hCTLA4_ECD.His point mutant G146 to alanine (human, UniProt P16410 36-161).
T4 construct: extracellular domain; alanine-scan mutein, HEK293F supernatant
T4 sequence (looked up): T1 sequence (looked up) with A48E, G111A
Here is the method: as §1

Assay [5] deals with T5, hCTLA4_ECD.His point mutant C129 to alanine (human, UniProt P16410 36-161).
T5 construct: extracellular domain; alanine-scan mutein, HEK293F supernatant
T5 sequence (looked up): T1 sequence (looked up) with A48E, C94A
Here is the method: as §1

The target in assay [6] is T6, hCTLA4_ECD.His point mutant R75 to alanine (human, UniProt P16410 36-161).
T6 construct: extracellular domain; alanine-scan mutein, HEK293F supernatant
T6 sequence (looked up): T1 sequence (looked up) with R40A, A48E
As for the experimental part: as §1

In assay [7] the target is T7, hCTLA4_ECD.His point mutant L74 to alanine (human, UniProt P16410 36-161).
T7 construct: extracellular domain; alanine-scan mutein, HEK293F supernatant
T7 sequence (looked up): T1 sequence (looked up) with L39A, A48E
Here is the method:
as §1

The target in assay [8] is T8, hCTLA4_ECD.His point mutant P138 to alanine (human, UniProt P16410 36-161).
T8 construct: extracellular domain; alanine-scan mutein, HEK293F supernatant
T8 sequence (looked up): T1 sequence (looked up) with A48E, P103A
As for the experimental part:
as §1

Assay [9] addresses T9, hCTLA4_ECD.His point mutant V40 to alanine (human, UniProt P16410 36-161).
T9 construct: extracellular domain; alanine-scan mutein, HEK293F supernatant
T9 sequence (looked up): T1 sequence (looked up) with V5A, A48E
As for the experimental part: as §1

Assay [10] deals with T10, hCTLA4_ECD.His point mutant A66 to glycine (human, UniProt P16410 36-161).
T10 construct: extracellular domain; alanine-scan mutein (alanine residues were mutated to glycine), HEK293F supernatant
T10 sequence (looked up): T1 sequence (looked up) with A31G, A48E
As for the experimental part: as §1

Assay [11] deals with T11, hCTLA4_ECD.His point mutant V84 to alanine (human, UniProt P16410 36-161).
T11 construct: extracellular domain; alanine-scan mutein, HEK293F supernatant
T11 sequence (looked up): T1 sequence (looked up) with A48E, V49A
As for the experimental part: as §1

Assay [12] concerns the target T12, hCTLA4_ECD.His point mutant I149 to alanine (human, UniProt P16410 36-161).
T12 construct: extracellular domain; alanine-scan mutein, HEK293F supernatant
T12 sequence (looked up): T1 sequence (looked up) with A48E, I114A
As for the experimental part:
as §1

Assay [13] has as its target T13, hCTLA4_ECD.His point mutant M38 to alanine (human, UniProt P16410 36-161).
T13 construct: extracellular domain; alanine-scan mutein, HEK293F supernatant
T13 sequence (looked up): T1 sequence (looked up) with M3A, A48E
As for the experimental part: as §1

B1: W3162-1.146.19-z12-uAb.IgG1K (antibody, V domains shown)
VH: QVQLQESGPGLVKPSETLSLTCSVTYHTITSGYDWTWIRKPPGKGMEWIGYISYSGNTNYNPSLKSRVTISRDTSKNQFFLKLSSVTAADTAVYYCASMMVPHYYVMDAWGQGTLVTVSS
VL: DIVMTQTPLSLSVTPGQPASISCRSSQSLLNSDGNTYLYWYLQKPGQSPQLLIYLVSKLGSGVPNRFSGSGSGTDFTLKISRVEAEDVGVYYCVQGTHDPWTFGGGTKVEIK
notes: Humanized; label says IgG1K
As for B1, the Fold change came out at 0.405 fold in assay [1]; 0.231 fold in [2]; 0.425 fold in assay [3]; 0.166 fold in assay [4]; 0.182 fold in assay [5]; 0.278 fold in [6]. Further, the Fold change in [7] worked out at 0.398 fold; in assay [8], 0.445 fold; in assay [9] it was 0.181 fold; in [10], 0.395 fold; in assay [11], 0.201 fold; in assay [12], 0.183 fold. The same molecule returned a Fold change in [13] of 0.182 fold.

B2: W3162_1.154.8-z35-uAb.IgG1K (antibody, V domains shown)
VH: QVQLVQSGAEVKKPGSSVKVSCKASGYTFTNYFMNWVRQAPGQGLEWMGRVDPEQGRADYAEKFKKRVTITADKSTSTAYMELSSLRSEDTAVYYCARRAMDNYGFAYWGQGTLVTVSS
VL: EIVLTQSPDFQSVTPKEKVTITCSANSALSYMYWYQQKPDQSPKLWVHGTSNLASGVPSRFSGSGSGTDFTLTINSLEAEDAATYYCHHWSNTQWTFGGGTKVEIK
notes: Humanized; label says IgG1K
Regarding B2, the Fold change in assay [1] came to 0.479 fold; in assay [2], 0.155 fold; in [3], 0.534 fold; in assay [4], 0.201 fold; in assay [5], 0.211 fold; in [6], 0.298 fold. Besides, the Fold change in [7] amounted to 0.52 fold; in assay [8] it was 0.339 fold; in assay [9], 0.187 fold; in assay [10], 0.519 fold; in assay [11], 0.232 fold; in assay [12], 0.319 fold. In assay [13], the Fold change was determined as 0.238 fold.
